Results reported in patent publication US20040138113A1, “Use of corticotroph-derived glycoprotein hormone to treat inflammation and potentiate glucocorticoid action” (priority 2002, published 2004).

How the values were obtained:
[1] = biological target: thyroid-stimulating hormone (TSH) receptor (human) (UniProt P16473); test: flow cytometry, human PBMC gated on CD3+ T cells; CGH-biotin 10 ug/ml then streptavidin-PE; background without CGH-biotin 4.3
[2] = biological target: thyroid-stimulating hormone (TSH) receptor (human) (UniProt P16473); test: flow cytometry, human PBMC gated on CD19+ B cells; CGH-biotin 10 ug/ml then streptavidin-PE; background without CGH-biotin 3.8
[3] = biological target: thyroid-stimulating hormone (TSH) receptor (human) (UniProt P16473); test: flow cytometry, human PBMC gated on CD56+ NK cells; CGH-biotin 10 ug/ml then streptavidin-PE; background without CGH-biotin 3.6
[4] = biological target: thyroid-stimulating hormone (TSH) receptor (human) (UniProt P16473); test: flow cytometry, human PBMC gated on CD14+ monocytes; CGH-biotin 10 ug/ml then streptavidin-PE; background without CGH-biotin 9.1
[5] = biological target: thyroid-stimulating hormone (TSH) receptor (human) (UniProt P16473); test: flow cytometry, human PBMC gated on CD4+ CD45RA+ naive CD4+ T cells; CGH-biotin 10 ug/ml then streptavidin-PE; background without CGH-biotin 3.5
[6] = biological target: thyroid-stimulating hormone (TSH) receptor (human) (UniProt P16473); test: flow cytometry, human PBMC gated on CD4+ CD45RA- memory CD4+ T cells; CGH-biotin 10 ug/ml then streptavidin-PE; background without CGH-biotin 3.4
[7] = biological target: thyroid-stimulating hormone (TSH) receptor (human), P16473; test: cell-based or functional assay
Sequence of thyroid-stimulating hormone (TSH) receptor (human), P16473 (P16473 21-764): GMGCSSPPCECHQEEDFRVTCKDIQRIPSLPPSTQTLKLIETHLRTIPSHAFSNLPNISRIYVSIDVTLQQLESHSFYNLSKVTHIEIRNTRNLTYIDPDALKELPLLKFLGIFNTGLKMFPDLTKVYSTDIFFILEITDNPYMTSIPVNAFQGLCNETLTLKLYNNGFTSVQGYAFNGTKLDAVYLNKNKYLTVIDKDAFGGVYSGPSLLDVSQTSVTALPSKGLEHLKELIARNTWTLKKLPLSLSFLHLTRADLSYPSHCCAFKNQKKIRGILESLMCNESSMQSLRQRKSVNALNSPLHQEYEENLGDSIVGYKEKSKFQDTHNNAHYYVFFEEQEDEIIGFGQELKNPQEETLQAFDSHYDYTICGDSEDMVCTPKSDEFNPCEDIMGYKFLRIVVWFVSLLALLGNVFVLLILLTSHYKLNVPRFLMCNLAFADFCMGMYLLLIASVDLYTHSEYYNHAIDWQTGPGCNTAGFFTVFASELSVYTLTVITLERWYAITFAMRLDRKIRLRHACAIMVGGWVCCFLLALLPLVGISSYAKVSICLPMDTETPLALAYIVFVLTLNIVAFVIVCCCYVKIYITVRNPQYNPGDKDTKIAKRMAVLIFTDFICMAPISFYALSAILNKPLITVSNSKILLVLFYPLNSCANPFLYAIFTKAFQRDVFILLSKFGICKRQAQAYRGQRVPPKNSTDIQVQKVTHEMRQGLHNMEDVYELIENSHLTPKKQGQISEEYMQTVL

[8] = test system: LPS-induced mild endotoxemia mouse model; test: LPS-induced mild endotoxemia mouse model, serum cytokines by ELISA; type: in vivo, C57B1/6 mice; settings: for effect on serum IL-6 levels / effect on serum TNFα levels: 2 mg/kg of the monomer, data not shown
Description: An in vivo experiment was designed to examine the effect of CGH in a mouse model of LPS-induced mild endotoxemia. This model mimics acute endotoxemia/sepsis by challenging mice with a low, non-lethal dose of bacterial endotoxin (lipopolysaccharide, LPS). Serum is collected at various timepoints (1-8 hours) after intraperitoneal LPS injection and analyzed for altered expression of a wide variety of pro- and anti-inflammatory cytokines and acute phase proteins that mediate the inflammatory response. The model provides a means to assess the potential anti-inflammatory effects of therapeutic candidates during a robust inflammatory response. To initially assess the model, we measured proinflammatory cytokines in a pilot experiment to collect reference data for the model.
C57B1/6 mice (Charles River Laboratories; 5 mice/group) were treated i.p. with PBS, 0.2 mg/kg CGH in PBS, or 2 mg/kg CGH in PBS 1 hour prior to LPS challenge. The mice were then challenged with 25 ug of LPS i.p. and bled at 1 hour and 4 hours after LPS injection. Serum was analyzed for TNFα (1 hour) and IL-6 (4 hours) levels by ELISA.
To determine if CGH would potentiate the effect of a sub-maximal dose of glucocorticoid, groups of 10 C57B1/6 mice each were treated i.p. with PBS, 0.15 or 1.5 mg/kg Dex, 2 mg/kg CGH, or a combination of CGH and low or high doses of Dex, 1 hour prior to injection of 25 ug LPS i.p. As shown in TABLE 3 (Expt #2), either 2 mg/kg CGH or 1.5 mg/kg Dex treatment alone (1 hour prior to LPS) caused a significant drop in serum TNFα levels at 1 hour, as observed in previous experiments. The effects of CGH administered in conjunction with Dex on inhibition of TNFα production were greater than either dose of Dex alone.

[9] = biological target: T1, glycoprotein hormone beta 5 (GPHB5) (human, UniProt Q86YW7 25-130, one N-linked glycosylation (site not stated)); test: co-expression in CHO cells (Example 5)
T1 construct: Subunit co-expressed with GPHA2 in CHO cells; also called beta subunit of CGH
T1 sequence: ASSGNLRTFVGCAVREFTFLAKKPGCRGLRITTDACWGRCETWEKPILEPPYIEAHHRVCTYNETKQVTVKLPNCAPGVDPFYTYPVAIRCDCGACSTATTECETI

NCI-H295R = test: CRE-luciferase reporter assay of cAMP-mediated gene induction in adrenal cortex cells; type: cell-based, human; settings: purified CGH heterodimer
Source text: Summary: A human adrenal cortex cell line, NCI-H295R, was used to study signal transduction of CGH. NCI-H295R was transduced with recombinant adenovirus containing a reporter construct, a firefly luciferase gene under the control of cAMP response element (CRE) enhancer sequences. This assay system detects cAMP-mediated gene induction downstream of activation of Gs-coupled GPCR's (G-protein coupled receptors). […] Typically, CGH elicited a maximal response of 15-40-fold luciferase induction above control media.
NCI-H295R cells were obtained from the ATCC (CRL-2128, Manassas, Va.) and cultured in growth medium as follows: 1:1 mixture of Dulbecco's modified Eagle's medium and Ham's F12 medium with L-glutamine (D-MEM/F-12; GIBCO, cat.# 11320-033) containing 25 mM HEPES buffer (GIBCO, Invitrogen, Carlsbad, Calif., cat.# 15630-080), 1 mM sodium pyruvate (GIBCO, cat.# 11360-070), 1% ITS+1 media supplement (Sigma St. Louis, Mo. cat# 12521) and 2.5% Nu-Serum I (BD Biosciences, Lexington, Ky. cat.#355100). Cells were cultured at 37° C. in a 5% CO2 humidified incubator. […]
Promega's Luciferase Assay System (Promega, Madison, Wis., cat. # E1500) was used to process the treated cells. […] Luciferase activity was measured on a microplate luminometer (PerkinElmer Life Sciences, Inc., model LB 96V2R) following automated injection of luciferase assay substrate.

TSHR = biological target: T2, TSHR (Homo sapiens, UniProt P16473); test: Release of free fatty acids (FFA) from adipose cells; type: cell-based
T2 construct: In adipose cells, sub-nanomolar levels of CGH stimulate release of free fatty acids (FFA); endogenous in cells
T2 sequence (P16473 21-764, species assumed): as the sequence (P16473 21-764) above

adrenal cortex = test: Adenoviral overexpression of CGH in mice, adrenal gland histopathology; type: in vivo, C57BL6 mice; settings: GPHA2- and GPHB5-expressing adenovirus by tail vein, day 20, all eight mice
Source text: Summary: Mice were exposed to CGH through infection with adenovirus particles expressing GPHA2 and GPHB5, leading to overexpression and secretion of CGH from the liver of these animals. […] The hypertrophy was apparent in the inner cortical layers, the zona fasciculata and the zona reticularis. Similarly, mice were exposed to CGH through intraperitoneal injection of recombinant CGH protein alone, recombinant CGH protein along with the glucocorticoid Dexamethasone (Dex), Dex alone, or PBS alone daily for two weeks.
Each group consisted of eight female C57BL6 mice. 7.5×10^11 particles each of GPHA2- and GPHB5-expressing adenovirus were administered by tail vein injection to the experimental group, while 1.5×10^11 particles of adenovirus expressing a parental vector alone were administered to the control group. Animals were sacrificed on day 20 following the injection and tissues were evaluated by a pathologist.

[10] = test system: neutrophils infiltrating the ears; test: Neutrophil infiltration in ears of DTH mice, anti-Gr-1 immunohistochemistry and histomorphometry; type: in vivo, C57B1/6 mice; settings: anti-Gr-1 staining, DTH experiment #1
Description: Ears from mice in DTH experiment #1 were analyzed by immunohistochemistry to assess which cell types were most affected by CGH treatment. Ears were fixed in Zinc/Tris buffer (2.3 mM calcium acetate/31.6 mM zinc acetate/36.7 mM zinc chloride in 0.1M Tris-HCL buffer, pH 7.4) for 24 hours at room temperature and stained with antibodies specific for CD4, CD8, CD11c, and Gr-1 (neutrophils). […] Ears were stained using a TechMate 500 autoimmunostainer (Biotech/Ventana) MIP protocol with some modifications. After drying the slides for 1 hour at 60° C., the sections were stained with a rat anti-mouse Gr-1 mAb (clone 7/4, Serotec, isotype rat IgG2a, used at 1.25 ug/ml final dilution), overnight at 4° C. This step was followed, after a wash, by biotinylated rabbit anti-rat IgG secondary antibody (Dako, used at 10 ug/ml in PBS with 2% normal rabbit serum and 2% nonfat dry milk) for 45 min. The sections were then washed and treated with HP Block (1.5% H2O2 in 50% methanol) 3 times, 7 min each, followed by 25 min in avidin-biotin complex, 3 times of 4 min each in DAB (Diaminobenzidine), then with Methyl green for 10 min.
Histomorphometry was performed to obtain the average pixel density of neutrophils per unit length (1 mm) present in the ear samples. […]

thymus = test system: thymus; parameters: species or system C57B1/6 mice; settings: mouse, in vivo
Source text: Since the receptor for CGH, TSH-R, is expressed by the adrenal glands, there was concern that the anti-inflammatory effects observed might be an indirect effect of increasing endogenous corticosteroid production in CGH-treated mice. One well-established side effect of increasing either exogenous or endogenous corticosteroid levels is substantial atrophy of the thymus, as the developing T cells are induced to undergo apoptosis. Therefore, the thymuses of the CGH and Dex-treated mice in the DTH experiments were analyzed. […] Thus, CGH seems to be mediating its anti-inflammatory effects in a manner distinct from that of exgenous glucocorticoids like Dex.

[11] = 2 mg/kg CGH 1 hour prior to LPS, Expt #1

Sequence of thyroid-stimulating hormone (TSH) receptor (human) (P16473 21-764): as the sequence (P16473 21-764) above

## CGH-biotin (biotinylated corticotroph-derived glycoprotein hormone) (from UniProt Q96T91 24-129; Q86YW7 25-130) (ligand)
[1]
  FL-2 MFI: 9.1 MFI
[2]
  FL-2 MFI: 12.9 MFI
[3]
  FL-2 MFI: 11.9 MFI
[4]
  FL-2 MFI: 56.4 MFI
[5]
  FL-2 MFI: 4.9 MFI
[6]
  FL-2 MFI: 8.7 MFI

B1: Corticotroph-derived glycoprotein hormone (CGH), purified recombinant heterodimer, Q96T91 24-129; Q86YW7 25-130 (ligand)
chain 1: QEAVIPGCHLHPFNVTVRSDRQGTCQGSHVAQACVGHCESSAFPSRYSVLVASGYRHNITSVSQCCTISGLKKVKVQLQCVGSRREELEIFTARACQCDMCRLSRY
chain 2: ASSGNLRTFVGCAVREFTFLAKKPGCRGLRITTDACWGRCETWEKPILEPPYIEAHHRVCTYNETKQVTVKLPNCAPGVDPFYTYPVAIRCDCGACSTATTECETI
modifications: here or on the partner: one N-linked glycosylation on the GPHB5 subunit (site not stated); two N-linked glycosylations on the GPHA2 subunit (sites not given)
[7]
  CRE-driven luciferase reporter induction (cAMP-mediated) in NCI-H295R human adrenal cortex cells: 15 to 40 fold

B2: zsig51: alpha subunit of CGH, glycoprotein hormone alpha2, previously called Zsig51; tested as monomer (protein)
chain: QEAVIPGCHLHPFNVTVRSDRQGTCQGSHVAQACVGHCESSAFPSRYSVLVASGYRHNITSVSQCCTISGLKKVKVQLQCVGSRREELEIFTARACQCDMCRLSRY
[8]
  effect on serum IL-6 levels: neither of these monomers had any effect
  effect on serum TNFα levels: neither of these monomers had any effect

B3: zlut1: monomer of CGH tested alone; not defined further, presumably the GPHB5 beta subunit (protein, UniProt Q86YW7 25-130, looked up)
Glycoprotein hormone beta-5: ASSGNLRTFVGCAVREFTFLAKKPGCRGLRITTDACWGRCETWEKPILEPPYIEAHHRVCTYNETKQVTVKLPNCAPGVDPFYTYPVAIRCDCGACSTATTECETI
[8]
  effect on serum IL-6 levels: neither of these monomers had any effect
  effect on serum TNFα levels: neither of these monomers had any effect

B4: glycoprotein hormone alpha2 (GPHA2) (ligand)
chain: QEAVIPGCHLHPFNVTVRSDRQGTCQGSHVAQACVGHCESSAFPSRYSVLVASGYRHNITSVSQCCTISGLKKVKVQLQCVGSRREELEIFTARACQCDMCRLSRY
modifications: two N-linked glycosylations (sites not given)
notes: Subunit co-expressed with GPHB5 in CHO cells; also called Zsig51; zsig51
[9]
  binding result: binds

B5: CGH: heterodimeric protein hormone of alpha subunit GPHA2 (SEQ ID NO:3) and beta subunit GPHB5 (SEQ ID NO:6) (protein, listed as Homo sapiens)
alpha: QEAVIPGCHLHPFNVTVRSDRQGTCQGSHVAQACVGHCESSAFPSRYSVLVASGYRHNITSVSQCCTISGLKKVKVQLQCVGSRREELEIFTARACQCDMCRLSRY
beta: ASSGNLRTFVGCAVREFTFLAKKPGCRGLRITTDACWGRCETWEKPILEPPYIEAHHRVCTYNETKQVTVKLPNCAPGVDPFYTYPVAIRCDCGACSTATTECETI
NCI-H295R
  dose-dependent induction of luciferase activity compared with 10 μM forskolin: equal to or higher than that induced by 10 μM forskolin
TSHR
  levels that stimulate release of free fatty acids (FFA): sub-nanomolar
TSHR; compared to TSH
  molar concentration stimulating release of FFA, lower compared to TSH: 10 fold
Adrenal cortex
  histomorphological changes of the inner adrenal cortical cells: profound hypertrophy and uniformly finely, foamy vacuolization
[8]; [11]
  increase of serum IL-6 levels at the 4 hour time point: about 70%
  reduction of the TNFα induction at the 1 hour time point: about 60%
[10]
  number of neutrophils infiltrating the ears compared to the PBS-treated controls: clear reduction
thymus
  relative proportion of each thymocyte subset compared with the PBS-treated group: not significantly different
